We go through 1 substance from patent publication US20120167239A1.

For this assay, the target named is GAL4:CfEcR-DEF (yeast; Choristoneura fumiferana). Kind of assay: cell-based or functional assay.

VP16:LmUSP-EF returned a maximum fold induction of luciferase reporter (two-hybrid switch, stable CHO clone 1A2, non-steroidal ligand) of 162 fold and a maximum fold induction of luciferase reporter (two-hybrid switch, stable CHO clone 1A2, steroid PonA) of 42 fold.
